Assay results from the DeepSol protein solubility set.

Test: soluble on expression in E. coli; label from the status in PepcDB or PDB records

Row | Sequence | soluble on expression in E. coli
1 | SDHFNAPVGMLEAITSVEGVDRVVPTIEMTGVAKTDSAFAGILLMGDNSLRTRNPLFGQTVSGNYPSFSSADTVPNPILLPQVTADKLHLKIGDKLRIYFAGTERMRLRAFTVAGVYSGGKMDMPVGLVSADVLRRVGGLGADDVSRLLIYASDPDETDLIVTRVFDRLSETLYVGEQRLTINTATELNPMIMDWLSALDTN | not soluble
2 | MGSDKIHHHHHHDDPFYAPVYPEAPPTKIAATGSIYQDSQAASLYSDIRAHKVGDIITIVLKEATQAKKSAGNQIKKGSDMTLDPVYAGGSNLSLGGIPLDLRYKDSMNTKRESDADQSNSLDGSISANIMQVLNNGNLVVRGEKWISINNGDEFIRVTGIVRSQDIKPDNTIDSTRMANARIQYSGTGTFAEAQKVGWLSQFFMSDWWPF | not soluble
3 | MKEVEKNEIKRLSDRLDAIRHQQAGLSLVESADKYAELEKEKETLEAEIIRLREVHSQKLSKEAQKLMNLPFRRAITKKEQADMGKLKKSVRGLIVVHPMTALGREMGLKEMTGFAKSEF | not soluble
4 | MVFKIKDEWGEFLVRLARRAIEEYLKTGKEIEPPKDTPPELWEKMGVFVTLNRYNVPPQTALRGCIGFPTPIYPLVEATIKAAIYSAVDDPRFPPVKLEEMDNLVVEVSVLTPPELIEGPPEERPRKIKVGRDGLIVEKGIYSGLLLPQVPVEWGWDEEEFLAETCWKAGLPPDCWLDEDTKVYKFTAEIFEEEYPRGPIKRKPLVLEHHHHHH | soluble
5 | MSLSMLPSFGFTQEQVACVCEVLQQGGNLERLGRFLWSLPACDHLHKNESVLKAKAVVAFHRGNFRELYKILESHQFSPHNHPKMQQLWLKAHYVEAEKLRGRPLGAVGKYRVRRKFPLPRTIWDGEETSYCFKEKSRGVLREWYAHNPYPSPREKRELAEATGMTTTQVSNWFKNRRQRDRAAEAKERENTENEGHHHHHH | not soluble
6 | GSDELKWNKGYSLPNLLEVTDQQKELSQWTLGDKVKLEEGRFVLTPGKNTKGSLWLKPEYSIKDAMTIEWTFRSFGFRGSTKGGLAFWLKQGNEGDSTELFGGSSKKFNGLMILLRLDDKLGESVTAYLNDGTKDLDIESSPYFASCLFQYQDSMVPSTLRLTYNPLDNHLLKLQMDNRVCFQTRKVKFMGSSPFRIGTSAINDASKESFEILKMKLYDGVIEDSL | soluble
7 | MGSDKIHHHHHHMRGIGLTHAFADISGLAFDRLFMVTETDGTFITARQFPQMVKFIPAPLHDGLHLSAPDGSSAVVRFSDFATQAEPTEVWGNHFTALIAPAAVNQWLSGFFKRDVQLRWLGPQLTRRVKRHDAVPLSFADGYPYLLANEASLRDLQQRCPASVSIEQFRPNLVVTGAAAWDEDSWKVIRIGEVVFDVAKPCSRCIFTTISPERGQKHPAGEPLETLKRFRTALDNGDVDFGQNLIARNSGVIRVGDEVEILTRGPAKAYGAGESDDTPAPEAQQQATVAIEWQGQQFTGNNQQVLLEQLEQQGIRVPYSCRAGICGSCRIRLEEGEVSPLKKNAVAGDGTILACSCVPKTALRLAP | not soluble
8 | MGGSHHHHHHGMASALSWKEARCQPAFLKDQARAIRLPPVDACRTQVRHGTGWGREPGILTGWGRRARDPDLGALPPGIQAAFCPGLPRCIEIELVHTAP | not soluble
9 | DPATVFRLVAAEALTLTGADGTLVAVPADPDASAAEELVIVEVAGAVPAEVEASAIPVQDNAIGQAFRDRAPRRLDVLDGPGLGGPALVLPLRATDTVAGVLVAVQGSGARPFTAEQLEMMTGFADQAAVAWQLASSQRRMSELDILAD | soluble
10 | MGSDKIHHHHHHMYVTSQIHAKGSDLAKLMQIAALKGNEEVLDVATGGGHVANAFAPFVKKVVAFDLTEDILKVARAFIEGNGHQQVEYVQGDAEQMPFTDERFHIVTCRIAAHHFPNPASFVSEAYRVLKKGGQLLLVDNSAPENDAFDVFYNYVEKERDYSHHRAWKKSDWLKMLEEAGFELEELHCFHKTFIFEDWCDRMNVTTEKKQELSDFIKSKPTEYYQKFKIVVEDGRVYSFRGESILMKARKPTVKNKGSS | soluble
11 | PGPPQGPPQPVQQSKRLQQTQAQVEEVVDIMRVNVDKVLERDSKISELDDRADALQAGASQFEASAGKLKRKFWWKNCKM | soluble
12 | GMSEALSDSGLPPVQRVVTGHDAHGRAVFKSEDVTPTRMIPSGDASFLLVWTTATVPADNNDETDGRQREAGLTLDGGSVIRVVDMLPGKESPMHRTNSIDYGIVLEGEIELELDDGAKRTVRQGGIIVQRGTNHLWRNTTDKPCRIAFILIEAPAYLHNGQPLPEDKPDHK | soluble
13 | PLKIGPPGHRYAFPLYSSKNLERDDLRGIRRLVIVLHGVKRNAASIHGTVTALFAANPERAEDTLVIAPKFASAIDAGFAAMPAWRRASWEDGELSMQARGRPAPVSSLQVLDDLLRELSDSSRLPALRTIVLAGHSGGAQLVQRYAVLNSLDETL | not soluble
14 | MGSDKIHHHHHHMGKKNYGKSVKTRLLNLMNETGYKYMYLLARYFNERLLYRVSVSQYKDNFLLKGGSLLYAMNGLEARPTVDVDFMADRISRDRDFLARVFQEILGIVCDEDGVSFDAGSIKIEPITVEKKYPGTRFYFTAHMDTIAYNMSVDIGFGDVVIPHPTTIDFPLLLPDIPSVNIQAYSLETVIAEKFHTMIDRDVLNSRMKDFFDCYQLLTKRNLNDDALYDAIEATFDNRGLAYNPDLQLFTDSFATDRARISRWKAFLRKIQWKEALDFDTVMKAIRDRLQPMAEKYWIKLSK | not soluble
15 | MLEKTLLKIALDLSLSLPKKAHYQRLMLAVNEVMPCDAVALLVLQDDYLVPVAVDGLSPEVLGMRFSPEEHPRLKAILSSRKPIRFDADSSYPDPYDGLLSIDPKRVLDVHDCMGCCLYVEENLVGVLTLDALQVGAFSNVDDITVATLAALAAATIRNANCIAVLEKRNEKALCLTNELVKDAHKAKGDD | not soluble
16 | MGSDKIHHHHHHMNIQDYPDRDMLAIDLANHLAGELEATLFTHDSATLAVAGGTTPGPVFDVLCAADLDWHRVMVLPTDERCVPQDHSRANARLIAERLLVNRAASARYLPLYLPGAEPEDCLAEVEALLTPALPLSVLVLGMGEDMHTASLFAGMPGLAAALDADAPALAVARPETQPENRITLTAPVLNGALSKHLIIYGAAKRKALERAMSMHPEEAPIAAVLDGITVHWAE | not soluble
17 | MLLSNEEFLKKLTDLLQTHQSKGTGSVYLSQKCNPVDEGEGSSASVLIRAKSGAAEKISTVVELDYFTDFFQSYAEVCKGQIVGLKKRDRK | soluble
18 | MKIAIAGAGAMGSRLGIMLHQGGNDVTLIDQWPAHIEAIRKNGLIADFNGEEVVANLPIFSPEEIDHQNEQVDLIIALTKAQQLDAMFKAIQPMITEKTYVLCLLNGLGHEDVLEKYVPKENILVGITMWTAGLEGPGRVKLLGDGEIELENIDPSGKKFALEVVDVFQKAGLNPSYSSNVRYSIWRKACVNGTLNGLCTILDCNIAEFGALPVSESLVKTLISEFAAVAEKEAIYLDQAEVYTHIVQTYDPNGIGLHYPSMYQDLIKNHRLTEIDYINGAVWRKGQKYNVATPFCAMLTQLVHGKEELLGAK | soluble
19 | MGSDKIHHHHHHLAADQDTETQEMLLVMSDLDAQGFDQRRINLTQAELYACIEWLARFHAMFAYEAFPKEDALDDASYDGLWPIGTYWHLATRPDELEVMTDSPLKNATEAIDARLNQARFQTLVHGDAKVANFCFHKEVESLGVNGVAAVDFQYVGAGIGVKDFIYLLGSCLDEAQLVTIYDAACSHYFKSLKQQLSGRWAAEQIEALVAEWSDLLPFAWADFERFLAGWQPQHHKRNGFSQDMTQRVLKALGSVR | not soluble
20 | MAAQQRDCGGAAQLAGPAAEADPLGRFTCPVCLEVYEKPVQVPCGHVFCSACLQECLKPKKPVCGVCRSALAPGVRAVELERQIESTETSCHGCRKNFFLSKIRSHVATCSKYQNYIMEGVKATIKDASLQPRNVPNRYTFPCPYCPEKNFDQEGLVEHCKLFHSTDTKSVVCPICASMPWGDPNYRSANFREHIQRRHRFSYDTFVDYDVDEEDMMNQVLQRSIIDQ | soluble
21 | AYESIQVTSAQKHVLHVQLNRPEKRNAMNRAFWRELVECFQKISKDSDCRAVVVSGAGKMFTSGIDLMDMASDILQPPGDDVARIAWYLRDLISRYQKTFTVIEKCPKPVIAAIHGGCIGGGVDLISACDIRYCTQDAFFQVKEVDVGLAADVGTLQRLPKVIGNRSLVNELTFTARKMMADEALDSGLVSRVFPDKDVMLNAAFALAADISSKSPVAVQGSKINLIYSRDHSVDESLDYMATWNMSMLQTQDIIKSVQAAMEKKDSKSITFSKL | soluble
22 | MAHHHHHHMNTDERYKLLRSVGEECIQESELRNLIEKKPLIRCYDGFEPSGRMHIAQGIFKAVNVNKCTAAGCEFVFWVADWFALMNDKVGGELEKIRIVGRYLIEVWKAAGMDMDKVLFLWSSEEITSHADTYWRMVLDIGRQNTIARIKKCCTIMGKTEGTLTAAQVLYPLMQCCDIFFLKADICQLGLDQRKVNMLAREYCDLIGRKLKPVILSHHMLAGLKQGQAKMSKSDPDSAIFMEDTEEDVARKIRQAYCPRVKQSASAITDDGAPVATDDRNPVLDYFQCVVYARPGAAATIDGTTYATYEDLEQAFVSDEVSEDALKSCLIDEVNALLEPVRQHFASNEEAHELLEAVKSYRKDGATLPLAETALPAAPAKPHACMWMPALLKVPLDVAEGMIKVTKDFIAAHPEGTVTLVLPDWSAVASDEITGVEKDISAALQVNCALLKAYGLPSSVKIVTENEVILGNCDDFWVSVIGIARKNLLSHVEELYGGEVRNAGQVIAALMRVATALMLSVSHVISTSLDGHINAFAREYTKERIDCVQTLEGRIPALHRPGAAPAVLGADDVLYLDDNDMDIRRKIKKAYSAPNEEANPVISVAQHLLAQHGALSIERGEANGGNVSYNTPEALVADCGSGALHPADLKAAVLQLLLDRSAQARALLNGELKKNMTVLRNAEKKMAKKR | soluble
23 | MSLTDPVKIYQRKWIVGGWMKRSEIRKALEAWFDVERYEAIETLTLQQFYVEVERRILAYRMLLSRNTIPTFNRLMLDDYRNKILSGEIFFSGDTATIGHELARTYAVNPTTRSHAQFYAKTLSLTEATPELSGLSQSEFLSEYLKETSLNNLSRITVDIHLEEASTEEIIEHLKVLIPQWKRQLKMTSPAPREYRFGKSTFRKIIDYRLIPMMDLIFWGEDNGIKIPLSLISSLLHEDSDNDRDEGMLKATDYPLAMAFLTDASYLKSLEDYMMENNHLKDSPVEKHVEDDRNEGHHHHHH | not soluble
24 | MGSDKIHHHHHHMPIITSYITQDDGTTTVVISGVELGNKETLLLDNGFDVEVDVSVIDPFQITGKQRRKIFALVKDIEEHTGQPMDYMRHMFIEFVRTYYGYDERISLSNCTRTQASQIIEATLDWTFYNDIPLSYKTSNLLKQDKSFLYWSTVNRNCVICGKPHADLAHYEAVGRGMNRNKMNHYDKHVLALCREHHNEQHAIGVKSFDDKYHLHDSWIKVDERLNKMLKGEKKE | not soluble
25 | MASYRKRENGLWEYRISYKTIDGKYKRKEKGGFKTKKLAQAAAIEIEKKLTQNILTNDEVTLYDFVKTWSEVYKRPYVKDKTWETYSKNFKHIKNYFQELKVKDITPLYYQKKLNEFGEKYAQETLEKFHYQIKGAMKVAVREQVVTFNFAEGAKVKSQVEPKNEEEDFLEEREYKALLALTRENIQYVSYFTLYLLAVTGLRFSEAMGLTWSDIDFKNGILDINKSFDYSNTQDFADLKNESSKRKVPIDSNTIDILREYKKNHWQANIKNRVCFGVSNSACNKLIKKIVGRKVRNHSLRHTYASFLILNGVDIVTISKLLGHESPDITLKVYTHQMEALAERNFEKIKNIFLVA | not soluble
